For assay [1], the target named is T1, human AT1 receptor (Homo sapiens, UniProt P30556).
T1 construct: purchased NEN Life Science Products Inc., Boston, Mass; host or cells: Chinese hamster ovary (CHO) cells, purified membrane preparation
T1 sequence (P30556 1-359): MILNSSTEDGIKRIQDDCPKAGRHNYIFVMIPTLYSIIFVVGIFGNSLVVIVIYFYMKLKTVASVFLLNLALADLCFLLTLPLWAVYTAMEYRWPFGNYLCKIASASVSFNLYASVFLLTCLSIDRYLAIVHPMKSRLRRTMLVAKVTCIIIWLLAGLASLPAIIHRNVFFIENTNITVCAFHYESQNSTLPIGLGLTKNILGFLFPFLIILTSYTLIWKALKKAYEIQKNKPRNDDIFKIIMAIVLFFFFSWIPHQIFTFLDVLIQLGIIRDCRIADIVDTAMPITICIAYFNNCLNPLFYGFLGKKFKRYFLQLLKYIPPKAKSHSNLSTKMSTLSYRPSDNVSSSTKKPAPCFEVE
Put plainly: Flu-AII:AT1 fluorescent intensity quenching binding assay. To be noted: 0.005, 0.01, 0.02 and 0.05 units AT1 receptor, 10 nM probe.

The target of assay [2] is T2, Cloned human angiotensin II AT1 receptor (purified membrane preparation derived from CHO cells) (human, UniProt P30556 1-359).
T2 construct: whole, on cells; Used as a membrane preparation, not intact cells; also called human AT1 receptor
T2 sequence (looked up): T1 sequence (P30556 1-359)
Put plainly: fluorescence intensity quenching assay in solution.

No end group written: not given here. fluorescein = fluorescein label at the amino-terminal end; Flu = fluorescein

With “Flu-Asp-Arg-Val-Tyr-Ile (fluorescein-DRVYI) [Flu-AII(1-5)]”, in assay [1], the “binding to AT1 receptor (fluorescent intensity versus probe alone)” value is listed as “did not bind”.

B1: Mutant angiotensin II fragment containing the first five amino acid residues of wildtype AII, labeled with fluorescein at its amino-terminus [Flu-AII(1-5)] (peptide)
peptide: Flu-DRVYI
notes: Synthesized by AnaSpec; also called mutant Flu-AII(1-5); mutant Flu-AII
For the molecule B1, the binding result in assay [2] is recorded as “no binding”.

For the origin of these results see patent publication US6645733B1, “Fluorescent intensity method for assaying binding between proteins or peptides” (Ingeneus Corporation, priority 1999, dated 2003).
